Laboratory results reported in article PMC8717925 (Nature structural & molecular biology, 2020).

B1: ARPC4 subunit of S. pombe Arp2/3 complex (natural protein)
chain: not shown
B2: ARPC2 subunit of S. pombe Arp2/3 complex (natural protein)
chain: MLSLDYNNIFIYELLTERFSSENPSSIDQVVTDFDGVTFHISTPEEKTKILISLSMKCYPELVNYGTLDLLKQIYGAYVHEPEMGYNFSILIDLQQLPATDEEKEQLAMSISMLKRNVLAAPFHRAFTKQAELADLARKDPENAPMLDKQATSQELMAIHYRDEETIVLWPEHDRVTVVFSTKFREETDRIFGKVFLQEFVDARRRPAIQTAPQVLFSYRDPPLEIRDIQGIQKGDDFGFVTFVLFERHFTPQNREDCISHIQVFRNTLHFHIKASKAYMHQRMRKRVADFQKVLNRAKPDVELERKTATGRSFVRA

What was measured:
[1] = molecular target: T1, Dip1 (S. pombe WISH/DIP/SPIN90 family nucleation promoting factor) (S. pombe, UniProt O74771 1-374); assay: cryo-EM structure
T1 sequence (looked up): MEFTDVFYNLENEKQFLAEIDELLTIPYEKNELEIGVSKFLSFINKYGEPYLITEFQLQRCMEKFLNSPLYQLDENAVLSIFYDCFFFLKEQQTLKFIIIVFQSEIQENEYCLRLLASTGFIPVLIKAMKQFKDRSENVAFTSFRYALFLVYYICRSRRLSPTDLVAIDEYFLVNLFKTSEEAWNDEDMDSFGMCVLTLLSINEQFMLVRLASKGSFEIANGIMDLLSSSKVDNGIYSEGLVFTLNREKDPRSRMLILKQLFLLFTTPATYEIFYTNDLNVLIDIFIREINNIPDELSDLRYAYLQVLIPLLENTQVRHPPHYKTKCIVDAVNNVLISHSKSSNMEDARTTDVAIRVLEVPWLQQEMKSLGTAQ

[2] = molecular target: B2; assay: cryo-EM structure

Binder: B1
- binding result [1]: binds
- binding result [2]: binds

Binder: B2
- binding result [1]: binds
